± gives the standard deviation of the averaged measurements.

The results in this text go back to the supplement of paper PMC11246515.

A short description of the series: total protein half-life in vivo (active degradation + dilution); higher = more stable protein.
[1] abbreviates: E. coli NCM3722 delta-clpP delta-lon delta-hslV, growth: N-lim chemostat, doubling time 6 h.
The mark [2] stands for this setting: E. coli NCM3722 delta-clpP, growth: N-lim chemostat, doubling time 6 h.
Setting [3] is: wild type E. coli NCM3722, growth: C-lim chemostat, doubling time 3 h.
The mark [4] stands for this setting: wild type E. coli NCM3722, growth: C-lim chemostat, doubling time 6 h.
[5] abbreviates: wild type E. coli NCM3722, growth: C-lim chemostat, doubling time 12 h.
The mark [6] stands for this setting: wild type E. coli NCM3722, growth: N-lim chemostat, doubling time 12 h.
Where [7] appears, read: wild type E. coli NCM3722, growth: P-lim chemostat, doubling time 6 h.
Setting [8] is: wild type E. coli NCM3722, growth: P-lim chemostat, doubling time 12 h.
[9] abbreviates: E. coli NCM3722 delta-hslV, growth: N-lim chemostat, doubling time 6 h.
The mark [10] stands for this setting: E. coli NCM3722 delta-lon, growth: N-lim chemostat, doubling time 6 h.
Setting [11] is: E. coli NCM3722 delta-smpB, growth: N-lim chemostat, doubling time 6 h.
Where [12] appears, read: wild type E. coli NCM3722, growth: N-lim chemostat, doubling time 6 h.

As to “MSTKPLFLLRKAKKSSGEPDVVLWASNDFESTCATLDYLIVKSGKKLSSYFKAVATNFPVVNDLPAEGEIDFTWSERYQLSKDSMTWELKPGAAPDNAHYQGNTNVNGEDMTEIEENMLLPISGQELPIRWLAQHGSEKPVTHVSRDGLQALHIARAEELPAVTALAVSHKTSLLDPLEIRELHKLVRDTDKVFPNPGNSNLGLITAFFEAYLNADYTDRGLLTKEWMKGNRVSHITRTASGANAGGGNLTDRGEGFVHDLTSLARDVATGVLARSMDLDIYNLHPAHAKRIEEIIAENKPPFSVFRDKFITMPGGLDYSRAIVVASVKEAPIGIEVIPAHVTEYLNKVLTETDHANPDPEIVDIACGRSSAPMPQRVTEEGKQDDEEKPQPSGTTAVEQGEAETMEPDATEHHQDTQPLDAQSQVNSVDAKYQELRAELHEARKNIPSKNPVDDDKLLAASRGEFVDGISDPNDPKWVKGIQTRDCVYQNQPETEKTSPDMNQPEPVVQQEPEIACNACGQTGGDNCPDCGAVMGDATYQETFDEESQVEAKENDPEEMEGAEHPHNENAGSDPHRDCSDETGEVADPVIVEDIEPGIYYGISNENYHAGPGISKSQLDDIADTPALYLWRKNAPVDTTKTKTLDLGTAFHCRVLEPEEFSNRFIVAPEFNRRTNAGKEEEKAFLMECASTGKTVITAEEGRKIELMYQSVMALPLGQWLVESAGHAESSIYWEDPETGILCRCRPDKIIPEFHWIMDVKTTADIQRFKTAYYDYRYHVQDAFYSDGYEAQFGVQPTFVFLVASTTIECGRYPVEIFMMGEEAKLAGQQEYHRNLRTLSDCLNTDEWPAIKTLSLPRWAKEYAND”, the “total protein half-life in vivo” value was 6.07 ± 0.4 h under setting [1]; 3.46 h under setting [2]; 3.65 ± 0.15 h under setting [3]; 4.2 ± 0.11 h under setting [4]; 5.8 ± 1.9 h under setting [5]; > 16 h under setting [6]. Besides, the “total protein half-life in vivo” value reads like this: under setting [7], 2.43 h; under setting [8], 4.82 h.
Regarding “MSVRNIFADESHDIYTVRTHADGPDGELPLTAEMLINRPSGDLFGMTMNAGMGWSPDELDRDGILLLSTLGGLRGADGKPVALALHQGHYELDIQMKAAAEVIKANHALPYAVYVSDPCDGRTQGTTGMFDSLPYRNDASMVMRRLIRSLPDAKAVIGVASCDKGLPATMMALAAQHNIATVLVPGGATLPAKDGEDNGKVQTIGARFANGELSLQDARRAGCKACASSGGGCQFLGTAGTSQVVAEGLGLAIPHSALAPSGEPVWREIARASARAALNLSQKGITTREILTDKAIENAMTVHAAFGGSTNLLLHIPAIAHQAGCHIPTVDDWIRINKRVPRLVSVLPNGPVYHPTVNAFMAGGVPEVMLHLRSLGLLHEDVMTVTGSTLKENLDWWEHSERRQRFKQLLLDQEQINADEVIMSPQQAKARGLTSTITFPVGNIAPEGSVIKSTAIDPSMIDEQGIYYHKGVAKVYLSEKSAIYDIKHDKIKAGDILVIIGVGPSGTGMEETYQVTSALKHLSYGKHVSLITDARFSGVSTGACIGHVGPEALAGGPIGKLRTGDLIEIKIDCRELHGEVNFLGTRSDEQLPSQEEATAILNARPSHQDLLPDPELPDDTRLWAMLQAVSGGTWTGCIYDVNKIGAALRDFMNKN”, the “total protein half-life in vivo” value amounted to 4.08 ± 0.67 h under setting [1]; 3.14 h under setting [2]; 3.82 ± 0.38 h under setting [9]; 4.55 ± 0.14 h under setting [10]; 3.33 ± 0.14 h under setting [11]; 5.0317 ± 0.00062 h under setting [4]. Besides, the “total protein half-life in vivo” value under setting [5] is 8.896 ± 0.017 h; the “total protein half-life in vivo” value under setting [12] came to 3.48 ± 0.52 h; the “total protein half-life in vivo” value under setting [6] is 4.88 ± 1.1 h; the “total protein half-life in vivo” value under setting [7] stood at 5.43 ± 0.13 h; the “total protein half-life in vivo” value under setting [8] came out at 10.1 ± 0.58 h.
Turning to “MTAFSTLNVLPPAQLTNLNELGYLTMTPVQAAALPAILAGKDVRVQAKTGSGKTAAFGLGLLQQIDASLFQTQALVLCPTRELADQVAGELRRLARFLPNTKILTLCGGQPFGMQRDSLQHAPHIIVATPGRLLDHLQKGTVSLDALNTLVMDEADRMLDMGFSDAIDDVIRFAPASRQTLLFSATWPEAIAAISGRVQRDPLAIEIDSTDALPPIEQQFYETSSKGKIPLLQRLLSLHQPSSCVVFCNTKKDCQAVCDALNEVGQSALSLHGDLEQRDRDQTLVRFANGSARVLVATDVAARGLDIKSLELVVNFELAWDPEVHVHRIGRTARAGNSGLAISFCAPEEAQRANIISDMLQIKLNWQTPPANSSIATLEAEMATLCIDGGKKAKMRPGDVLGALTGDIGLDGADIGKIAVHPAHVYVAVRQAVAHKAWKQLQGGKIKGKTCRVRLLK”, the “total protein half-life in vivo” value was 5.81 ± 1.4 h under setting [1]; 2.58 h under setting [2]; 3.78 h under setting [4]; 8.81 ± 4.4 h under setting [5]; 2.59 h under setting [7].
“MSELSQLSPQPLWDIFAKICSIPHPSYHEEQLAEYIVGWAKEKGFHVERDQVGNILIRKPATAGMENRKPVVLQAHLDMVPQKNNDTVHDFTKDPIQPYIDGEWVKARGTTLGADNGIGMASALAVLADENVVHGPLEVLLTMTEEAGMDGAFGLQGNWLQADILINTDSEEEGEIYMGCAGGIDFTSNLHLDREAVPAGFETFKLTLKGLKGGHSGGEIHVGLGNANKLLVRFLAGHAEELDLRLIDFNGGTLRNAIPREAFATIAVAADKVDVLKSLVNTYQEILKNELAEKEKNLALLLDSVANDKAALIAKSRDTFIRLLNATPNGVIRNSDVAKGVVETSLNVGVVTMTDNNVEIHCLIRSLIDSGKDYVVSMLDSLGKLAGAKTEAKGAYPGWQPDANSPVMHLVRETYQRLFNKTPNIQIIHAGLECGLFKKPYPEMDMVSIGPTITGPHSPDEQVHIESVGHYWTLLTELLKEIPAK”: the “total protein half-life in vivo” value under setting [1] came out at 4.741 ± 0.0055 h; the “total protein half-life in vivo” value under setting [2] turned out to be 4.94 ± 0.75 h; the “total protein half-life in vivo” value under setting [9] was determined as 5.28 ± 0.26 h; the “total protein half-life in vivo” value under setting [10] turned out to be 4.816 ± 0.018 h; the “total protein half-life in vivo” value under setting [11] worked out at 4.53 ± 0.12 h; the “total protein half-life in vivo” value under setting [3] was 3.09 ± 0.14 h. The “total protein half-life in vivo” value was determined as 5.61 ± 0.4 h under setting [4]; 11.1 ± 0.36 h under setting [5]; 4.81 ± 0.18 h under setting [12]; 8.14 ± 0.0087 h under setting [6]; 5.88 ± 0.37 h under setting [7]; 13.7 ± 3.1 h under setting [8].
As for “MSEKYIVTWDMLQIHARKLASRLMPSEQWKGIIAVSRGGLVPGALLARELGIRHVDTVCISSYDHDNQRELKVLKRAEGDGEGFIVIDDLVDTGGTAVAIREMYPKAHFVTIFAKPAGRPLVDDYVVDIPQDTWIEQPWDMGVVFVPPISGR [P0A9M5]”, the “total protein half-life in vivo” value under setting [1] stood at 4.63 ± 0.2 h; the “total protein half-life in vivo” value under setting [2] turned out to be 3.87 ± 0.29 h; the “total protein half-life in vivo” value under setting [9] was found to be 4.153 ± 0.02 h; the “total protein half-life in vivo” value under setting [10] stood at 4.37 ± 0.52 h; the “total protein half-life in vivo” value under setting [11] was 4.28 ± 0.093 h; the “total protein half-life in vivo” value under setting [3] turned out to be 3 ± 0.046 h. Besides, the “total protein half-life in vivo” value is, setting by setting: under setting [4], 5.55 ± 0.23 h; under setting [5], 9.92 ± 0.83 h; under setting [12], 4.16 ± 0.19 h; under setting [6], 6.73 ± 0.53 h; under setting [7], 6.07 ± 0.34 h; under setting [8], 13.99 ± 0.054 h.
With “MEKEQLIEIANTIMPFGKYKGRRLIDLPEEYLLWFARKDEFPAGKLGELMQITLLIKTEGLTQLVQPLKRPL [P0AD40]”, the “total protein half-life in vivo” value by setting is: under setting [1], 6.16 ± 0.29 h; under setting [4], 5.09 h; under setting [5], 6.67 h; under setting [7], 3.3 h; under setting [8], 8.7 ± 2.7 h.
Take “MSPCKLLPFCVALALTGCSLAPDYQRPAMPVPQQFSLSQNGLVNAADNYQNAGWRTFFVDNQVKTLISEALVNNRDLRMATLKVQEARAQYRLTDADRYPQLNGEGSGSWSGNLKGNTATTREFSTGLNASFDLDFFGRLKNMSEAERQNYLATEEAQRAVHILLVSNVAQSYFNQQLAYAQLQIAEETLRNYQQSYAFVEKQLLTGSSNVLALEQARGVIESTRSDIAKRQGELAQANNALQLLLGSYGKLPQAQTVNSDSLQSVKLPAGLSSQILLQRPDIMEAEHALMAANANIGAARAAFFPSISLTSGISTASSDLSSLFNASSGMWNFIPKIEIPIFNAGRNQANLDIAEIRQQQSVVNYEQKIQNAFKEVADALALRQSLNDQISAQQRYLASLQITLQRARALYQHGAVSYLEVLDAERSLFATRQTLLDLNYARQVNEISLYTALGGG”: the “total protein half-life in vivo” value reads like this: under setting [1], 6.75 h; under setting [10], 5.11 ± 0.78 h; under setting [11], 5.15 ± 2.9 h; under setting [4], 7.18 h; under setting [5], > 16 h; under setting [12], 6.34 ± 0.14 h. The “total protein half-life in vivo” value worked out at 12.47 ± 0.09 h under setting [6], 6.29 ± 0.17 h under setting [7] and 13.07 ± 0.062 h under setting [8].
